What all share (assay): SPR, KD relative to WT C2;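 further: biacore SPR at 37 °C, anti-C2 mAbs captured via immobilised goat anti-human IgG, C2 alanine or serine surface mutants as analytes, 1:1 model fitted, double-referenced sensograms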
A general note: SPR reads the build-up and loss of mass on a sensor chip optically.

The target of assay [1] is T1, human C2 L271A (human, UniProt P06681 21-752).
T1 sequence: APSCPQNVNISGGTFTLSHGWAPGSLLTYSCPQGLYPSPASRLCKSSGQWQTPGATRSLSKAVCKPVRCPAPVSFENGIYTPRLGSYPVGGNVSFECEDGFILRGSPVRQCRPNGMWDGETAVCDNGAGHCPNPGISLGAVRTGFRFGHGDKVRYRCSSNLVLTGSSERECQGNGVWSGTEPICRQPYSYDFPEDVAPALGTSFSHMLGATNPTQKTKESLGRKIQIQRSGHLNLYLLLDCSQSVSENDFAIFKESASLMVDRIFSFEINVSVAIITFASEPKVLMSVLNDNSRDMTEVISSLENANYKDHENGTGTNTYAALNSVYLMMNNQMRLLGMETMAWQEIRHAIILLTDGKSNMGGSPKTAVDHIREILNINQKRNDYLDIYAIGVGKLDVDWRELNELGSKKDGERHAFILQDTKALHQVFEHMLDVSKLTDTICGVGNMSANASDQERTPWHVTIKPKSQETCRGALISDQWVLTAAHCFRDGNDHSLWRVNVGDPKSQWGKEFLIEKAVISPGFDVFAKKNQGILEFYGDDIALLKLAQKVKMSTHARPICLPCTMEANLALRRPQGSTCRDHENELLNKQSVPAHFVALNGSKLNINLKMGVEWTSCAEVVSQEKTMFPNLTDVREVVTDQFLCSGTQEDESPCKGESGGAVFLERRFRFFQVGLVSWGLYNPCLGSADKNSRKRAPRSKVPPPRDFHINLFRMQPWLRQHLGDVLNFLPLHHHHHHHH

Assay [2] deals with T2, human C2 N325A (human, UniProt P06681 21-752).
T2 sequence: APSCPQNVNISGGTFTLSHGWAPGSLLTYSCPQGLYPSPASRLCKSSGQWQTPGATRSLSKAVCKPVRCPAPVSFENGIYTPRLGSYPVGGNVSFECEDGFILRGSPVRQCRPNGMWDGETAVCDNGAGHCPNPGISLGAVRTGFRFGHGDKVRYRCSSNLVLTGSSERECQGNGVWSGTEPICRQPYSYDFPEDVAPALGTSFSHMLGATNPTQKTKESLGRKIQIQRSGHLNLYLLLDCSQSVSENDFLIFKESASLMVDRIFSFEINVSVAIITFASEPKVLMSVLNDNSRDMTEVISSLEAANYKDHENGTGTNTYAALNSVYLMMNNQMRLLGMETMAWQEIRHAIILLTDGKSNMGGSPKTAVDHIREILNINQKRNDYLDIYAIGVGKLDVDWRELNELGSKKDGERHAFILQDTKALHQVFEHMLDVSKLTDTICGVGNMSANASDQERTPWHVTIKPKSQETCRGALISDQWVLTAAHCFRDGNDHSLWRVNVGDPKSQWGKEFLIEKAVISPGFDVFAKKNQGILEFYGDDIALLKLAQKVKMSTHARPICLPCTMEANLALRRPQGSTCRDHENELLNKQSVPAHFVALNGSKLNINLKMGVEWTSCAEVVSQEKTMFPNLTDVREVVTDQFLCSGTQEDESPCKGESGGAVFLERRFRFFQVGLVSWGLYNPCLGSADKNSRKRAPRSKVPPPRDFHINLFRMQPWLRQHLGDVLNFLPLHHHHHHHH

Assay [3] addresses T3, human C2 H435A (human, UniProt P06681 21-752).
T3 sequence: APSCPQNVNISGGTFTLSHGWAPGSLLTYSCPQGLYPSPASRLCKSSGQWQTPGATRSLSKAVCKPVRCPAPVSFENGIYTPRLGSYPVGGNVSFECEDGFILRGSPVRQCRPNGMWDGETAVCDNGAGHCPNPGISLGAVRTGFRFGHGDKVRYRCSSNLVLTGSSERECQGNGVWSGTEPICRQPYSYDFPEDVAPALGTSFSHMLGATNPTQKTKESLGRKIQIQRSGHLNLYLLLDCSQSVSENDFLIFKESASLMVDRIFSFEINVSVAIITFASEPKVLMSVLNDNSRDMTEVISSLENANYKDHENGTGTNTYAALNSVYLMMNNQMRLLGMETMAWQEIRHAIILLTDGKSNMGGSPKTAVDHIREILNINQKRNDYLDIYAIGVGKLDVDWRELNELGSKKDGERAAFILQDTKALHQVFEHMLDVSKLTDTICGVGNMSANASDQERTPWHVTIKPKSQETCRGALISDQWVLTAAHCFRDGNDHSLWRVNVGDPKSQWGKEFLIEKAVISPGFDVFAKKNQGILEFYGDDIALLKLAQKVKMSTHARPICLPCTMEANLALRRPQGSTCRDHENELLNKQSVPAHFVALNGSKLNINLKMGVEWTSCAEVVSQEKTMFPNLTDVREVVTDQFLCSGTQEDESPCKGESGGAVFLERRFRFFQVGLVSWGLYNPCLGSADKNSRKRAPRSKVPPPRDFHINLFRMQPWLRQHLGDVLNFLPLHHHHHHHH

The target in assay [4] is T4, human C2 F270A (human, UniProt P06681 21-752).
T4 sequence: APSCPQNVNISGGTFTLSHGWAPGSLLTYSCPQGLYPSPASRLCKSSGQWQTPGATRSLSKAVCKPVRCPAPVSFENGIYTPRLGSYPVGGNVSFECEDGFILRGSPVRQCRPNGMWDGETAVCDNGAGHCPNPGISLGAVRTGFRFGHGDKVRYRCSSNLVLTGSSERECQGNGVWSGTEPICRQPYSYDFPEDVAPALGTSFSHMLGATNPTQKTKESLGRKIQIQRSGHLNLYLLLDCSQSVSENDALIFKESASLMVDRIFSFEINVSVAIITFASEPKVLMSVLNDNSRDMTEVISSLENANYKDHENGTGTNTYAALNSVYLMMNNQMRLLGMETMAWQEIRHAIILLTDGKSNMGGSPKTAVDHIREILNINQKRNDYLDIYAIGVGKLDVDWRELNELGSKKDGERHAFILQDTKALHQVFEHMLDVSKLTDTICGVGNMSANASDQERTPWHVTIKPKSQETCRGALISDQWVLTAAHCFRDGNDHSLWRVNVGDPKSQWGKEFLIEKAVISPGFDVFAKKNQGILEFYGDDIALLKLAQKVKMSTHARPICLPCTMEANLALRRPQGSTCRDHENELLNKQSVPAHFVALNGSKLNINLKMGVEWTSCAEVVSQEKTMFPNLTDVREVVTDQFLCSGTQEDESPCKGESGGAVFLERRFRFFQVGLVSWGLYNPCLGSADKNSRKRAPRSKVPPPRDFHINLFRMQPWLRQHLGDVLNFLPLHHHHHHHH

B1: RF16-226 (antibody, human IgG4 S228P, lambda)
heavy: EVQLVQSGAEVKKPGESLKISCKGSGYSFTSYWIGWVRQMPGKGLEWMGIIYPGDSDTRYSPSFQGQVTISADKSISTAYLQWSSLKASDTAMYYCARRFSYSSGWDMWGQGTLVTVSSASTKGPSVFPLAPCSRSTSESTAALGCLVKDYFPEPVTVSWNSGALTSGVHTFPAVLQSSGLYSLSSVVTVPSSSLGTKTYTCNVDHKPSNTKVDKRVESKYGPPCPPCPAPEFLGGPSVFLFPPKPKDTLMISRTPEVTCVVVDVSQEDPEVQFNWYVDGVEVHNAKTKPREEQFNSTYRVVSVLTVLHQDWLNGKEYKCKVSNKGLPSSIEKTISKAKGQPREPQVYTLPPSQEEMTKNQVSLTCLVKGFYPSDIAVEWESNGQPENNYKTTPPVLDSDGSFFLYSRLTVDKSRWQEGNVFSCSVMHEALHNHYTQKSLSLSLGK
light: SYELTQPPSVSVSPGQTARITCSGDALTSKYVAWYQQKSGLAPLLVIYEDTRRPSGIPAKFSGSSSGSVATLTISGAHGDDEADYYCYSTDASGHQRVFGGGTKLTVLSQPKAAPSVTLFPPSSEELQANKATLVCLISDFYPGAVTVAWKADGSPVKAGVETTKPSKQSNNKYAASSYLSLTPEQWKSHRSYSCQVTHEGSTVEKTVAPTECS
notes: pH-dependent anti-C2 antibody from a phage display library; also called WT
Take B1: the Fold diff in assay [1] is 1 fold; in assay [2], 5 fold; in assay [3], 2 fold; in assay [4], 10 fold.

These data come from patent publication US20220332804A1 (CSL INNOVATION, published 2022).
